Measured values taken from paper PMC6090015, “Identification and characterization of a novel β-D-galactosidase that releases pyruvylated galactose” (Scientific Reports, 2018).

Assays:
[1] = test system: T1, CC1(C(=O)O)OC[C@H]2O[C@@H](Oc3ccc([N+](=O)[O-])cc3)[C@H](O)[C@@H](O)[C@H]2O1; assay: discontinuous pNP release, A405; assay type: biochemical, Bacillus sp. HMA207; settings: 50 mM HEPES-NaOH pH 7.5, 37 °C
T1 construct: full length 469 aa, no signal peptide; pET-32b, N-terminal His5 tag, E. coli BL21(DE3)CodonPlus delta-lacZ, Ni-purified
Description: (§1) discontinuous pNP release, A405 on ORF1119 (PvGal-ase)

[2] = molecular target: T2, ORF1119 (PvGal-ase) (Bacillus sp. HMA207, UniProt Z9IVQ1LJN5, E163A); assay: X-ray crystal structure, […] Å; assay type: binding; settings: co-crystallised with pNP-β-D-PvGal, pNP lost during crystal growth; active site; phosphate-citrate pH 5.2
T2 construct: full length 469 aa, no signal peptide; pET-32b, N-terminal His5 tag, E. coli BL21(DE3)CodonPlus delta-lacZ, Ni-purified

[3] = test system: T3, O=[N+]([O-])c1ccc(O[C@@H]2O[C@H](CO)[C@@H](O)[C@H](O)[C@H]2O)cc1; assay: discontinuous pNP release, A405; assay type: biochemical, Bacillus sp. HMA207; settings: 50 mM HEPES-NaOH pH 7.5
T3 construct: full length 469 aa, no signal peptide; pET-32b, N-terminal His5 tag, E. coli BL21(DE3)CodonPlus delta-lacZ, Ni-purified
Description: as §1

[4] = test system: T4, C[C@H]1O[C@@H](Oc2ccc([N+](=O)[O-])cc2)[C@H](O)[C@@H](O)[C@H]1O; assay: discontinuous pNP release, A405; assay type: biochemical, Bacillus sp. HMA207; settings: 50 mM HEPES-NaOH pH 7.5
T4 construct: full length 469 aa, no signal peptide; pET-32b, N-terminal His5 tag, E. coli BL21(DE3)CodonPlus delta-lacZ, Ni-purified
Description: as §1

[5] = test system: T5, O=[N+]([O-])c1ccc(O[C@@H]2O[C@H](CO)[C@H](O)[C@H](O)[C@H]2O)cc1; assay: discontinuous pNP release, A405; assay type: biochemical, Bacillus sp. HMA207; settings: 50 mM HEPES-NaOH pH 7.5
T5 construct: full length 469 aa, no signal peptide; pET-32b, N-terminal His5 tag, E. coli BL21(DE3)CodonPlus delta-lacZ, Ni-purified
Description: as §1

For “ORF1119 (PvGal-ase) (Bacillus sp. HMA207; K434A)”, the Km [1] was 0.73 ± 0.12 mM, the kcat [1] was 8.8 ± 0.2 s⁻¹ and the kcat/Km [1] was 12000 M⁻¹ s⁻¹.
Compound “ORF1119 (PvGal-ase) (Bacillus sp. HMA207; N430Y)” has a Km [1] of 0.37 ± 0.08 mM, a kcat [1] of 7.7 ± 0.2 s⁻¹ and a kcat/Km [1] of 21000 M⁻¹ s⁻¹.
“ORF1119 (PvGal-ase) (Bacillus sp. HMA207; N430A)” was tested, and the Km [1] was 0.90 ± 0.16 mM, the kcat [1] was 7.0 ± 0.2 s⁻¹ and the kcat/Km [1] was 7700 M⁻¹ s⁻¹.
Work on “ORF1119 (PvGal-ase) (Bacillus sp. HMA207; Y436F)” yielded a Km [1] of 0.53 ± 0.09 mM, a kcat [1] of 6.5 ± 0.2 s⁻¹ and a kcat/Km [1] of 12000 M⁻¹ s⁻¹.
In the case of “ORF1119 (PvGal-ase) (Bacillus sp. HMA207; S427A)”, the Km [1] is reported as 1.92 ± 0.45 mM, the kcat [1] is reported as 4.4 ± 0.3 s⁻¹ and the kcat/Km [1] is reported as 2300 M⁻¹ s⁻¹.
In the case of `C[C@@]1(C(=O)O)OC[C@H]2OC(O)[C@H](O)[C@@H](O)[C@H]2O1` (stereo partly shown) [PvGal], the “X-ray crystal structure, 2.45 Å” value [2] is reported as “In the complex structure, clear electron density is observed for the PvGal ligand”.
For “ORF1119 (PvGal-ase) (Bacillus sp. HMA207)”, the Km ([1]; 37.0 °C) was 0.81 ± 0.14 mM, the kcat ([1]; 37.0 °C) was 5.2 ± 0.2 s⁻¹ and the kcat/Km ([1]; 37.0 °C) was 6300 M⁻¹ s⁻¹. For the same compound, the Km [3] was 7.4 ± 0.4 mM, the kcat [3] was 0.10 ± 0.002 s⁻¹ and the kcat/Km [3] was 14 M⁻¹ s⁻¹. It also gave a Km [4] of 1.9 ± 0.1 mM, a kcat [4] of 1.6 ± 0.02 s⁻¹ and a kcat/Km [4] of 830 M⁻¹ s⁻¹. The Km [5] was 3.3 ± 0.4 mM, the kcat [5] was 0.20 ± 0.005 s⁻¹ and the kcat/Km [5] was 60 M⁻¹ s⁻¹.
Compound “ORF1119 (PvGal-ase) (Bacillus sp. HMA207; S427E)” has a Km [3] of 0.46 ± 0.09 mM, a kcat [3] of 0.05 ± 0.001 s⁻¹ and a kcat/Km [3] of 98 M⁻¹ s⁻¹. The Km [4] was 0.47 ± 0.06 mM, the kcat [4] was 0.91 ± 0.02 s⁻¹ and the kcat/Km [4] was 2000 M⁻¹ s⁻¹. The Km [5] was 0.89 ± 0.09 mM, the kcat [5] was 0.13 ± 0.002 s⁻¹ and the kcat/Km [5] was 149 M⁻¹ s⁻¹.
Compound “ORF1119 (PvGal-ase) (Bacillus sp. HMA207; Y436A)” has a Km [1] of 0.80 ± 0.18 mM, a kcat [1] of 0.68 ± 0.03 s⁻¹ and a kcat/Km [1] of 860 M⁻¹ s⁻¹.
